T1: Suppressor of fused (Sufu), endogenous mouse protein (mouse (endogenous in E10.5 embryos), UniProt Q9Z0P7 1-484)
T1 construct: Suppressor of fused (Sufu), mouse, endogenous in E10.5 embryos; source: endogenous, E10.5 mouse whole embryo lysate (control or Tbx3 null)
T1 sequence (looked up): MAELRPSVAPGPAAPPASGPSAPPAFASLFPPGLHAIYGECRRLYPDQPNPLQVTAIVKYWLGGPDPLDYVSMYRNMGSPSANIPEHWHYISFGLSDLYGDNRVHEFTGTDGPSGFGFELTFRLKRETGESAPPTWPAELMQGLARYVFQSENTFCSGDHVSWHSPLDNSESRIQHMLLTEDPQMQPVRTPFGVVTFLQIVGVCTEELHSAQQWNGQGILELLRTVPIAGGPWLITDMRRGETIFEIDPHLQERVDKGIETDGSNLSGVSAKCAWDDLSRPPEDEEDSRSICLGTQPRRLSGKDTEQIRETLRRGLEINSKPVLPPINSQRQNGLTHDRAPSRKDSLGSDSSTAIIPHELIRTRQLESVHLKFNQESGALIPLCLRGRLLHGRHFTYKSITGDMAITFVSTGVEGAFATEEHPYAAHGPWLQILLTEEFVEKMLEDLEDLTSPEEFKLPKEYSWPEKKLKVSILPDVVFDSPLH

B1: Kif7, endogenous mouse protein (natural protein, mouse (endogenous in E10.5 embryos), UniProt B7ZNG0 1-1348, looked up)
chain: MGLEAQRLPGAEEAPVRVALRVRPLLPKELLHGHQSCLRVEPERGRITLGRDRHFGFHVVLGEDTGQEAVYQACVQPLLEAFFEGFNATVFAYGQTGSGKTYTMGEASVASLHEDEQGIIPRAMAEAFKLIDENDLLDCLVHVSYLELYKEEFRDLLEVGTASRDIQLREDDRGNVVLCGVKEVDVEGLDEVLSLLEMGNAARHTGATHFNRLSSRSHTVFTVTLEQRGRTPSRLPRPAAGHLLVSKFHFVDLAGSERVLKTGSTGERLKESIQINSTLLALGNVISALGDPQRRGSHIPYRDSKITRILKDSLGGNAKTVMIACVSPSSSDFDETLNTLNYASRAQNIRNRATVNWHPEAERVPEEQAAGARGPPRHRSETRIIHRGRRVPCPAVGSAAVAAGLGAECARCRARTSAAYSLLRELQAEPGLPGAAARKVRDWLCAVEGERSTLSSASGPDSGIESAPAEDQAAQGTSGRKGDEGTQQLLTLQSQVARLEEENRDFLAALEDAMEQYKLQSDRLREQQEEMVELRLRLELAQPGWGAPGLLQGLPPGSFVPRPHTAPLGGAHTHMLGMMPSTCLPGEEVSSEQQVVSGKEVKAEVLAQADKLRSASSTTSEEEGEEEEEEEEEEEEPPRRTLYLRRNGISNWSQRAGLSPGSPPDRKGPEVCPEEPAAAIPAPQAVGSGKVPVQTRQAPAAMASEWRLAQAQQKIRELAINIRMKEELIGELVRTGKAAQALNRQHSQRIRELEQEAERVRAELCEGQRQLRELEGREPQDASERSRLQEFRKRVAAAQSQVQVLKEKKQATERLVSLSAQSETRLQELERNVQLMRRQQGQLQRRLREETEQKRRLETEMNKRQHRVKELELKHEQQQKILKIKTEEIAAFQRKRRSGSNGSVVSLEQQQKIEEQKKWLDQEMEKVLQQRRALEELGEELRKREVILAKKEALMQEKTGLESKRLRSSQALNEDIVRVSSRLEHLEKELSEKSGQLRQGSAQNQQQIRGEIDTLRQEKDSLLKQRLEIDSKLRQGSLLSPEEERTLFQLDEAIEALDAAIEYKNEAITCRQRVLRASASLLSQCEMNLMAKLSYLSSSETRALLCKYFDKVVTLREEQHQQQIAFSELEMQLEEQQRLVYWLEVALERQRLEMDRQLTLQQKEHEQNVQLLLQQGRDHLGEGLADSKRQYEARIHALEKELGRHMWINQELKQKLSAGSTAGQSQGCERRSLCLENRQCLGNEDGLHPAAPEPLWQSSLLEGVSRVWDESRDLVHAPLPLTWKRSSLCSEQGSSEESRVRETTEPPVGRVLPMGEVGLSWNFGPLPKPRWEPRRTSPGMIDVRKNPL
notes: Kif7, ciliary kinesin family protein, mouse, endogenous in E10.5 forelimb buds and whole embryos; source: endogenous, E10.5 mouse forelimb bud lysate or E10.5 whole embryo lysate (control or Tbx3 null)
B2: full length Gli3 (Gli3FL), endogenous mouse protein (natural protein, mouse (endogenous in E10.5 embryos), UniProt Q61602 1-1583, looked up)
chain: MEAQAHSSTATERKKAENSIGKCPTRTDVSEKAVASSTTSNEDESPGQIYHRERRNAITMQPQSVQGLNKISEEPSTSSDERASLIKKEIHGSLPHLAEPSLPYRGTVFAMDPRNGYMEPHYHPPHLFPAFHPPVPIDARHHEGRYHYDPSPIPPLHVPSALSSSPTYPDLPFIRISPHRNPTAASESPFSPPHPYINPYMDYIRSLHSSPSLSMISAARGLSPTDAPHAGVSPAEYYHQMALLTGQRSPYADILPSAATAGAGAIHMEYLHAMDSTRFPSPRLSARPSRKRTLSISPLSDHSFDLQTMIRTSPNSLVTILNNSRSSSSASGSYGHLSASAISPALSFTYPSAPVSLHMHQQILSRQQSLGSAFGHSPPLIHPAPTFPTQRPIPGIPTVLNPVQVSSGPSESSQSKPTSESAVSSTGDPMHNKRSKIKPDEDLPSPGSRGQQEQPEGTTLVKEEADKDESKQEPEVIYETNCHWEGCTREFDTQDQLVHHINNDHIHGEKKEFVCRWLDCSREQKPFKAQYMLVVHMRRHTGEKPHKCTFEGCTKAYSRLENLKTHLRSHTGEKPYVCEHEGCNKAFSNASDRAKHQNRTHSNEKPYVCKIPGCTKRYTDPSSLRKHVKTVHGPEAHVTKKQRGDMHPRPPPPRDSGSHSQSRSPGRPTQGAFGEQKELSNTTSKREECLQVKTVKAEKPMTSQPSPGGQSSCSSQQSPISNYSNSGLELPLTDGGSVADLSAIDETPIMDSTISTATTALALQARRNPAGTKWMEHIKLERLKQVNGMFPRLNPILPSKAPAVSPLIGNGTQSNNNYSSGGPGTLLPSRSDLSGVDFTVLNTLNRRDSNTSTISSAYLSSRRSSGISPCFSSRRSSEASQAEGRPQNVSVADSYDPISTDASRRSSEASQGDGLPSLLSLTPVQQYRLKAKYAAATGGPPPTPLPHMERLSLKTKMALLGEGRDSGVTLPPVHPPRRCSDGGGHTYRGRHLMPHDALANSVRRASDPVRTVSENMSLARVQRFSSLNSFNPPNLPPSVEKRSLVLQNYTRQESSQPRYFQASPCPPSITENVALEALTMDADANLNDEDLLPDDVVQYLNSQNQTGYGQQLQSGISEDSKVAHEPEDLDLAGLPDSHVGQEYPALEQPCSEGSKTDLPIQWNEVSSGTSDLSSSKLKCGQQRPSAQQPRGFGLYNNMVVHPHNLWKVGTGPAGGYQTLGENSSTYNGPEHFAIHSGDGLGTNGNTFHEQPFKTQQYGSQLNRQPLTSSALDHACGTGIQGSKLKGNSLQENGGLLDFSLSVAPNELAGNTVNGMQTQDQMGQGYIAHQLLSGSMQHQGPSRPGQQVLGQVGATSHINIYQGTESCLPGTQDNSSQPSSMAAIRGYQPCASYGGNRRQAMPRGNLTLQQGQLSDMSQSSRVNSIKMEAQGQSQQLCSTVQNYSGQFYDQTMGFSQQDRKAGSFSLSDANCLLQGNGTENSELLSPGANQVTSTVDSFESHDLEGVQIDFDAIIDDGDHTSLMSGALSPSIIQNLSHSSSRLTTPRASLPFPSLSMGTTNMAIGDMSSLLTSLAEESKFLAVMQ
notes: Gli3 transcription factor, mouse, the unprocessed full length form (Gli3FL band on anti-Gli3 immunoblots); also called GliFL; source: endogenous, E10.5 mouse forelimb bud lysate or E10.5 whole embryo lysate (control or Tbx3 null)

What was measured:
[1] = target: Kif7, endogenous mouse protein (mouse (endogenous in E10.5 embryos)) (UniProt B7ZNG0); assay: co-IP; as a4, but lysates of Tbx3 null (Tbx3 delta-fl/delta-fl, ko) E10.5 embryos; Kif7-Gli3 co-precipitate compared with control (wt) embryos by densitometry
[2] = target: Suppressor of fused (Sufu), endogenous mouse protein (mouse (endogenous in E10.5 embryos)) (UniProt Q9Z0P7); assay: co-IP; endogenous proteins; E10.5 whole mouse embryo lysates in Dignam buffer C, control (wt) embryos; Sufu-Gli3, Sufu-Kif7 and Tbx3-Spop also assayed in Tbx3 null (Tbx3 delta-fl/delta-fl, ko) embryos, where less Sufu-Gli3 and Sufu-Kif7 co-precipitated; 5-10 ug antibody overnight at 4 C, Protein-G Dynal beads, immunoblot, densitometry
[3] = target: T2, Gli3, endogenous mouse protein as precipitated by anti-Gli3 (Gli3FL and Gli3R not told apart) (mouse (endogenous in E10.5 embryos), UniProt Q61602 1-1583); assay: co-IP; as a4, but lysates of Tbx3 null (Tbx3 delta-fl/delta-fl, ko) E10.5 embryos; Kif7-Gli3 co-precipitate compared with control (wt) embryos by densitometry; settings: partners not purified
T2 construct: Gli3 transcription factor, mouse, endogenous; Used only for the lanes in which Gli3 was the bait (IP with anti-Gli3, blot for the partner); the forms Gli3FL and Gli3R are told apart only on anti-Gli3 blots; also called endogenous Gli3; Gli3 proteins; source: endogenous, E10.5 mouse forelimb bud lysate or E10.5 whole embryo lysate (control or Tbx3 null)

[4] = target: B1; assay: as above; settings: partners not purified
[5] = target: T1, Suppressor of fused (Sufu), endogenous …; assay: co-IP; endogenous proteins; E10.5 whole mouse embryo lysates in Dignam buffer C, control (wt) embryos; Sufu-Gli3, Sufu-Kif7 and Tbx3-Spop also assayed in Tbx3 null (Tbx3 delta-fl/delta-fl, ko) embryos, where less Sufu-Gli3 and Sufu-Kif7 co-precipitated; 5-10 ug antibody overnight at 4 C, Protein-G Dynal beads, immunoblot, densitometry; settings: partners not purified

## Gli3 repressor form (Gli3R), endogenous mouse protein (from UniProt Q61602 1-1583) (domain or fragment)
[1]
  band intensity ratio of control to mutant: 0.25
[2]
  fold more co-precipitated in controls than in Tbx3 mutants: > 9 fold

## Gli3 repressor form (Gli3R), endogenous mouse protein (from UniProt Q61602 1-1583)
[1]
  fold more co-precipitated in Tbx3 mutants than in controls: 3.3 fold

## B1
[3]
  band intensity ratio of control to mutant: 0.1

## B2
[4]
  band intensity ratio of control to mutant: 0.1
[5]
  fold more co-precipitated in controls than in Tbx3 mutants: 4.6 fold

— article PMC4829432, “T-box3 is a ciliary protein and regulates stability of the Gli3 transcription factor to control digit number” (eLife, 2016)
